14 molecules from patent US20210388087A1 (Chugai, published 2021) can be followed below.

Where a chain is given by its changes, count along the chain named. Names may count otherwise. Where no end group is shown, it is not given here.

The labels stand for the following.
T1: cyno CD137-Fc (cynomolgus monkey; human, limits assumed, biotin-labeled)
T1 construct: whole entry 92 named; also called biotin-labeled cynomolgus monkey CD137 fused to human IgG1 Fc fragment; not shown: human IgG1 Fc fragment
T1 chain: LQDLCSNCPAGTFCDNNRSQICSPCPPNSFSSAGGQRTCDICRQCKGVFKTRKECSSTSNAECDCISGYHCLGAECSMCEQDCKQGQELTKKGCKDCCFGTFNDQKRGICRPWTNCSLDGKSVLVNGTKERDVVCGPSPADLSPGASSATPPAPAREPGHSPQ

T2: Biotin-labeled CD3 epsilon peptide antigen (human, also: biotin-labeled, site not given here)
T2 construct: also called CD3 peptide
T2 peptide: QDGNEEMGGITQTPY

B1: DXDU01_3#072 (antibody, V domains shown)
VH: QVQLVESGGGLVQPGRSLRLSCAASGFTFSNAWMHWVRQAPGKGLEWVAQIKDRSQLYAAYYAPSVKGRFTISRDDSKNSIYLQMNSLKTEDTAVYYCHYVHYASASTVLGAYGVDAWGQGTTVTVSS
VL: DIVMTQSPLSLPVTPGEPASISCRSSQSLVHSNRNTYLHWYQQKPGQAPRLLIYKVSNRFSGVPDRFSGSGSGTDFTLKISRVEAEDVGVYYCGQGTQVPYTFGQGTKLEIK
notes: Human IgG1; light chain GLS3000 (kappa); also called dBBDu122
B2: dBBDu179 (antibody, human IgG1, V domains shown)
VH: B1 VH with Q56N, L57Q, A60T, G111P, Y113F
VL: B1 VL
notes: human IgG1; GLS3000 light chain
B3: Dual-Fab H183/L072 variant with single light chain mutation K50Y (Kabat) (antibody, name in Kabat numbering, V domains shown)
VH: B1 VH with R54K, S55G, Q56N, L57A, G111P, Y113F
VL: B1 VL with R24Q, S25A, S28E, S32M, K55Y, S61P, G94A, Q98S, Y101F
notes: expressed as an antibody in Expi293 and purified on Protein A; also called dBBDu183H / dBBDu072L K50Y
B4: Dual-Fab H183/L072 variant with single light chain mutation Q90Y (Kabat) (antibody, name in Kabat numbering, V domains shown)
VH: B1 VH with R54K, S55G, Q56N, L57A, G111P, Y113F
VL: B1 VL with R24Q, S25A, S28E, S32M, S61P, G94A, Q95Y, Q98S, Y101F
notes: expressed as an antibody in Expi293 and purified on Protein A; also called dBBDu183H / dBBDu072L Q90Y
B5: Dual-Fab H183/L072 variant with single light chain mutation F55Y (Kabat) (antibody, name in Kabat numbering, V domains shown)
VH: B1 VH with R54K, S55G, Q56N, L57A, G111P, Y113F
VL: B1 VL with R24Q, S25A, S28E, S32M, F60Y, S61P, G94A, Q98S, Y101F
notes: expressed as an antibody in Expi293 and purified on Protein A; also called dBBDu183H / dBBDu072L F55Y
B6: Dual-Fab H183/L072 variant with single light chain mutation V51Y (Kabat) (antibody, name in Kabat numbering, V domains shown)
VH: B1 VH with R54K, S55G, Q56N, L57A, G111P, Y113F
VL: B1 VL with R24Q, S25A, S28E, S32M, V56Y, S61P, G94A, Q98S, Y101F
notes: expressed as an antibody in Expi293 and purified on Protein A; also called dBBDu183H / dBBDu072L V51Y
B7: Dual-Fab H183/L072 variant with single light chain mutation N53Y (Kabat) (antibody, name in Kabat numbering, V domains shown)
VH: B1 VH with R54K, S55G, Q56N, L57A, G111P, Y113F
VL: B1 VL with R24Q, S25A, S28E, S32M, N58Y, S61P, G94A, Q98S, Y101F
notes: expressed as an antibody in Expi293 and purified on Protein A; also called dBBDu183H / dBBDu072L N53Y
B8: Dual-Fab H183/L072 variant with single light chain mutation V94Y (Kabat) (antibody, name in Kabat numbering, V domains shown)
VH: B1 VH with R54K, S55G, Q56N, L57A, G111P, Y113F
VL: B1 VL with R24Q, S25A, S28E, S32M, S61P, G94A, Q98S, V99Y, Y101F
notes: expressed as an antibody in Expi293 and purified on Protein A; also called dBBDu183H / dBBDu072L V94Y
B9: Dual-Fab H183/L072 variant with single light chain mutation T97Y (Kabat) (antibody, name in Kabat numbering, V domains shown)
VH: B1 VH with R54K, S55G, Q56N, L57A, G111P, Y113F
VL: B1 VL with R24Q, S25A, S28E, S32M, S61P, G94A, Q98S, Y101F, T102Y
notes: expressed as an antibody in Expi293 and purified on Protein A; also called dBBDu183H / dBBDu072L T97Y
B10: Dual-Fab H183/L072 variant with single light chain mutation F96Y (Kabat) (antibody, name in Kabat numbering, V domains shown)
VH: B1 VH with R54K, S55G, Q56N, L57A, G111P, Y113F
VL: B1 VL with R24Q, S25A, S28E, S32M, S61P, G94A, Q98S
notes: expressed as an antibody in Expi293 and purified on Protein A; also called dBBDu183H / dBBDu072L F96Y
B11: Dual-Fab H183/L072 variant with single light chain mutation S52Y (Kabat) (antibody, name in Kabat numbering, V domains shown)
VH: B1 VH with R54K, S55G, Q56N, L57A, G111P, Y113F
VL: B1 VL with R24Q, S25A, S28E, S32M, S57Y, S61P, G94A, Q98S, Y101F
notes: expressed as an antibody in Expi293 and purified on Protein A; also called dBBDu183H / dBBDu072L S52Y
B12: Dual-Fab H183/L072 variant with single light chain mutation G91Y (Kabat) (antibody, name in Kabat numbering, V domains shown)
VH: B1 VH with R54K, S55G, Q56N, L57A, G111P, Y113F
VL: B1 VL with R24Q, S25A, S28E, S32M, S61P, G94A, G96Y, Q98S, Y101F
notes: expressed as an antibody in Expi293 and purified on Protein A; also called dBBDu183H / dBBDu072L G91Y
B13: Dual-Fab H183/L072 variant with single light chain mutation P56Y (Kabat) (antibody, name in Kabat numbering, V domains shown)
VH: B1 VH with R54K, S55G, Q56N, L57A, G111P, Y113F
VL: B1 VL with R24Q, S25A, S28E, S32M, S61Y, G94A, Q98S, Y101F
notes: expressed as an antibody in Expi293 and purified on Protein A; also called dBBDu183H / dBBDu072L P56Y
B14: Dual-Fab H183/L072 variant with single light chain mutation A89Y (Kabat) (antibody, name in Kabat numbering, V domains shown)
VH: B1 VH with R54K, S55G, Q56N, L57A, G111P, Y113F
VL: B1 VL with R24Q, S25A, S28E, S32M, S61P, G94Y, Q98S, Y101F
notes: expressed as an antibody in Expi293 and purified on Protein A; also called dBBDu183H / dBBDu072L A89Y

The target of one assay is T3, human CD137-Fc (human, biotin-labeled).
T3 construct: if 90 already holds the Fc, drop the second piece; also called biotin-labeled human CD137 fused to human IgG1 Fc fragment; biotin-human CD137-Fc; not shown: human IgG1 Fc fragment
The assay can be described thus: bead ELISA on biotin-human CD137-Fc, 0 pmol free CD3e peptide. On the technique in general: ELISA stands for enzyme-linked immunosorbent assay.
In the case of B1, the ELISA signal came out at 2700.

The target in another assay is T4, biotin-labeled human CD137 fused to human IgG1 Fc fragment (human, UniProt Q07011 24-186, biotin-labeled).
T4 construct: also called human CD137-Fc; biotin-human CD137-Fc; not shown: human IgG1 Fc fragment
In words: bead ELISA, 1250 ng IgG, S/N over biotin-human Fc.
As to B2, the binding result is listed as “binds”.

A further assay addresses T3, human CD137-Fc. The assay can be described thus: bead ELISA on biotin-human CD137-Fc, 125 vs 0 pmol free CD3e peptide.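 Further: target captured on streptavidin-coated magnetic beads, signal read as fluorescence 2 min after adding APS-5 substrate.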
Molecule B1 displayed a Signal decrease of 30.2%.

A further assay concerns the target T1, cyno CD137-Fc. In words: bead ELISA, IgG on biotinylated antigen, luminescence.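 Further: biotinylated antigen captured on streptavidin magnetic beads, then incubated with purified IgG at 50 ng/µL for 1 h at room temperature before detection.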
For B1, the RLU came to 3350 RLU and the “S/N ratio (cyno CD137-Fc/Fc)” value is 1.56.

Another assay deals with T3, human CD137-Fc. Described as above.
Consider B1, for which the RLU is 14100 RLU and the “S/N ratio (human CD137-Fc/Fc)” value is 6.58.

In the next assay the target is T5, Human CD137 ECD (human).
T5 construct: also called human CD137 extracellular domain; hCD137
In words: SPR (Biacore), affinity of single-mutation variant against parental H183/L072.
As to B3, the “fold change of affinity for CD137” value amounted to 0 fold.
In the case of B4, the “fold change of affinity for CD137” value was 0 fold.
Same read-out and setting: under B5 stands 0 fold; under B6, 0.2 fold; under B7, 0.3 fold.
Same read-out and setting: under B8 stands 0.1 fold; under B9, 0.3 fold; under B10, 0.6 fold.
For B11, the “fold change of affinity for CD137” value worked out at 1.2 fold.
Same read-out and setting: under B12 stands 0 fold.
Consider B13, for which the “fold change of affinity for CD137” value amounted to 0 fold.
Same read-out and setting: the value for B14 was 0 fold.

In a further assay the target is T2, Biotin-labeled CD3 epsilon peptide …. In words: bead ELISA, IgG on biotinylated CD3 epsilon peptide, luminescence.
In the case of B1, the RLU is 177000 RLU and the “S/N ratio (CD3 peptide/non coating)” value was found to be 148.

The target of the next assay is T3, human CD137-Fc. In words: bead ELISA on biotin-human CD137-Fc with 125 pmol/well free CD3e peptide as competitor.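 Further: Streptavidin-coated magnetic beads in blocking buffer as the capture surface, well signal read as fluorescence 2 min after adding APS-5 substrate.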
Molecule B1 had an ELISA signal of 1880.
